Measured values published in patent US20210371505A1.

Target: Hemagglutinin of A/Wisconsin/67/2005 (H3N2) overexpressed on 3T3 cells (Influenza A virus A/Wisconsin/67/2005 (H3N2))
Test: cell-based or functional assay

B1: H1H14612N2 (antibody, V domains shown)
VH: EVQLVESGGGLVKPGGSLRLSCAASGFSFSGFSMNWVRQAPGKGLEWVSSISTSGNYMYYADSVKGRFTISRDNAKKSFSLQMNSLRAEDSAIYYCARGGGYNWNLFDYWGQGSLVTVSS
VL: EIVLTQSPGTLSLSPGERATLSCRASQSLNSNYLAWYQQKPGQAPRLLIYGASSRATGIPDRFSGSGSGADFTLTISRLESEDFAVYYCQQYGNSPLTFGGGTKVEIK
EC50, ADCC with human donor PBMCs (CytoTox-Glo): 0.176 nM
EC50, FcγRIIIA activation in the ADCC-Glo reporter bioassay (Promega): 0.688 nM
